According to patent publication US20240294650A1 (Alector, published 2024):
Numbering of substitutions follows the chain as printed.

T1: recombinant cynomolgus MerTK extracellular domain (cynomolgus, UniProt Q12866 21-505 (human entry))
T1 construct: also called cyno MerTK ECD; not shown: polyHis or TEVS/Thrombin/murine IgG2a-Fc tag
T1 chain: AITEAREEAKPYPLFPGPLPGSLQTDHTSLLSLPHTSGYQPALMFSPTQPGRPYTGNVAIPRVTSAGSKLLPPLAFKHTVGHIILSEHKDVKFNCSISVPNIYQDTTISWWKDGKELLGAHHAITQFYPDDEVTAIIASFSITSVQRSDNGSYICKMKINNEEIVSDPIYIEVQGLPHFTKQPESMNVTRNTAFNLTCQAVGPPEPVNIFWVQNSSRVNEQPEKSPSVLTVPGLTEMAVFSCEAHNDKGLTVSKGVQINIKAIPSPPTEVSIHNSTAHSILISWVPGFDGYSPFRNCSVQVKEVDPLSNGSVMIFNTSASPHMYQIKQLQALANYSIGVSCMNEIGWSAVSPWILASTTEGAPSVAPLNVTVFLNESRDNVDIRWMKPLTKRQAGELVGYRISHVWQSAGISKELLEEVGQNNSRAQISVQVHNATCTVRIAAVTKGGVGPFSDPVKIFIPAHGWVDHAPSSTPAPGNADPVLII

T2: recombinant murine MerTK extracellular domain (mouse, UniProt Q60805 19-497)
T2 construct: also called Mouse MerTK; murine MerTK ECD; not shown: polyHis or TEVS/Thrombin/murine IgG2a-Fc tag
T2 sequence: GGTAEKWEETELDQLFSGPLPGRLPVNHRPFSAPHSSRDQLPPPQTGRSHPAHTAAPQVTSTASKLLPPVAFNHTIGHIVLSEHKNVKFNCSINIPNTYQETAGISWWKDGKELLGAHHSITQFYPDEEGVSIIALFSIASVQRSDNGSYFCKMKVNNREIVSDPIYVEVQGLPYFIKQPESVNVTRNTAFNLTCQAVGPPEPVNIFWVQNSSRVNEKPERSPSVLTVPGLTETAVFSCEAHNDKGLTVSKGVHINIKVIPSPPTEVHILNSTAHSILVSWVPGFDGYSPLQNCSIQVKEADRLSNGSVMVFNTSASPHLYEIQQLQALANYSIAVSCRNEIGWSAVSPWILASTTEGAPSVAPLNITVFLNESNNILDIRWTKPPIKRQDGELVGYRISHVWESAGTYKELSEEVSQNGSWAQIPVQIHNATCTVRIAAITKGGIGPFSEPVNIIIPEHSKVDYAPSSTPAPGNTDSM

T3: MerTK N-terminal ECD Half-and-half chimera (human)
T3 construct: tested as culture supernatant; also called MerTK N-term half-and-half chimera; MerTK N-terminal ECD (NT-Ig1-Ig2) + Axl C-terminal ECD (FN1-FN2-JM)
T3 chain: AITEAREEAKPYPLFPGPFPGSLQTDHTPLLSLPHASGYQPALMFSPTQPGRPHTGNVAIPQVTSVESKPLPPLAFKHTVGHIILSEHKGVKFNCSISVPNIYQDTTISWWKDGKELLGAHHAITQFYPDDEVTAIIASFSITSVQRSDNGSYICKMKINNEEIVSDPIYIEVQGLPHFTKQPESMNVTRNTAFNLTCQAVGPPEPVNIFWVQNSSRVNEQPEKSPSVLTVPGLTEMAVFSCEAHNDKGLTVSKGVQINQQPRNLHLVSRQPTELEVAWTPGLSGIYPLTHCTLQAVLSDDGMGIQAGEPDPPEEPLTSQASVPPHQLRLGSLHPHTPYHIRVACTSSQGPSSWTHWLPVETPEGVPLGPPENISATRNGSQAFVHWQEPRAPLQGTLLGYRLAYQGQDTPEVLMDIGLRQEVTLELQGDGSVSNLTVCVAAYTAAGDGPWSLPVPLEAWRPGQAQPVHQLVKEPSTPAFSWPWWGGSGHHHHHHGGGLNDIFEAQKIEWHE

B1: MTK-223 (antibody, human IgG1, V domains shown)
VH: DVQLQESGPGLVKPSQSLSLTCSVTGYSITSGYYWNWIRQFPGNKLEWMGYISYDGTNNYNPSLKNRISITRDTSENQFFLKLNSVTTEDTATYFCVRGAGYWGQGTTLTVSS
VL: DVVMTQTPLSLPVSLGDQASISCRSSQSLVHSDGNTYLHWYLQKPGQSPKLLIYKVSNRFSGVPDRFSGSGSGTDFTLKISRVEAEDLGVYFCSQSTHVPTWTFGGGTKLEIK
B2: MTK-229 (antibody, human IgG1, V domains shown)
VH: QVQLQQSGPELVKPGASVKISCKASGYEFSRSWMNWVKQRPGKGLEWIGRIYPGDGDTNYKGKLKGQATLTADKSSSTAYMQLSSLTFEDSAVYFCARGGGYYYDSRYEGFVYWGQGTVVTVSA
VL: QIVLTQSPAIMSASPGEEVTMTCSASSSVSYMHWYQQKSGTSPKRWIYDTSKLASGVSGRFSGSGSGTSYSLTISSMEAEDAATYYCQQWSSNPPITFGAGTKLELK
B3: MTK-211 (antibody, human IgG1, V domains shown)
VH: QVQLQQSGAELMKPGASVKLSCKATGYTFTGYWIEWVKQRPGHGLEWIGEILPGSGGSNYNEKFKGKATFTADTSSNTAYIQLSSLTTEDSAIYCCARGEPSYFSDAGFAYWGQGTLVTVSA
VL: QIVLTQSPAVMSASPGEKVTMTCSASSSITYMHWYQQKPGTSPKRWIYDTSKLASGVPARFSGSGSGTSYFLTISSMEAEDVATYYCHQRSTYPYTFGGGTKLEIM
B4: MTK-220 (antibody, V domains shown)
VH: EVQLVESGGGLVKPGGSLKLSCAASGFTFSDYGMHWVRQAPEKGLEWVAFISGGSGTIYYEDTVKGRFTISRDNAKNTLFLQMTSLRSEDTAMYYCTRGGNYFDYWGQGTTLTVSS
VL: NIMLTQSPSSLAVSAGEKVTMTCKSSQSVLYSSNQKNYLAWYQQKPGQSPKLLIYWASTRESGVPDRFTGSGSGTDFTLTISNVQAEDLAVYYCHQYFSSWTFGGGTKLEIK
B5: MTK-202 (antibody, human IgG1, V domains shown)
VH: EVQLVESGGGLVKPGGSLKLSCAASGFTFSDFGMHWVRQVPEKGLEWVAFISGGSNTIYYTDTVKGRFTISRDNAKNTLFLQMTSLRSEDTAMYYCVRNGNSFAYWGQGTLVTVSA
VL: B4 VL with L4M, T22N, V84I, V91I, S99F
B6: MTK-204 (antibody, human IgG1, V domains shown)
VH: B4 VH with F50Y, G53S, S55T, G56S, T97A, N101L, Y102L
VL: B4 VL with L4M, T22S, Y55Q, G74E, S82R, N83S
B7: MTK-231 (antibody, human IgG1, V domains shown)
VH: B1 VH with N58Y, N61H, E76K, K82T, Y94F, F95Y, V97T, A100G, T108S, L109V
VL: DVVMTQTPLSLPVSLGDQASISCRSSQSLVHSDGNTYLHWYLQKPGQSPKLLIYKVSNRFSGVPDRFSGSGSGTDFTLKISRLEAEDLGIYFCSQTTHIPLTFGSGTKLEIK
B8: MTK-215 (antibody, human IgG1, V domains shown)
VH: EVQLVESGGGLVKPGGSLKLSCAASGFIFSDYGMHWVRQAPEKGLEWVAYISSGSSTIYYGDTVKGRFTISRDNAKNTLFLQMTSLRSEDTAMYYCAKGGRYGAMDYWGHGTSVTVSS
VL: DIVLTQSPATLSVTPGDSVSLSCRASQSISNNLHWYQQKSHESPRLLIKNPSQSISGIPSRFGARGSGTDFTLIINSVETEDLGVYFCQQSNSWPFTFGSGTKLEIK
B9: MTK-208 (antibody, human IgG1, V domains shown)
VH: QVQLQQPGAELVVPGASVRLSCKASGYTFINYWMHWVKQRPGQGLEWIGEIDPSDSYANYNQKFKDKSTLSLDKSSSTAYMQLSSLTSEDSAVYYCARCDYYGRLDYWGQGTTLTVSS
VL: QVVLTQSPAIMSASPGEKVTITCSASSSVSYMLWFQQKPGTSPKLWIYSTSNLASGVPARFSGSGSGTSYSLTISRLEAEDAATYYCQQRSSYPPITFGAGTKLELK
B10: MTK-225 (antibody, human IgG1, V domains shown)
VH: EVQLQQSGPELVKPGASVKIFCKASGYTFTAYNMDWVKQSHGKSLEWIGDINPNNGGTIYNQKFKGKATLTVDKSSSTAYMELRSLTSEDTAVYYCARRRRYGNTYYWYFDVWGTGTTVTVSS
VL: DIQMTQSPASLSVSVGETVTITCRASENIYSSLAWYQQKQGKSPQLLVYAATNLADGVPSRFSGSGSGTQFYLKINGLQSEDFGSYYCQHFWGTSYTFGGGTKLEIK
B11: MTK-221 (antibody, human IgG1, V domains shown)
VH: QVTLKESGPGMLQSSQTLSLTCSFSGFSLSTSGMGVSWIRQPSGKGLEWLAHIYWDDDKRYNTSLQSRLTISKDTSRNQVFLKITSVDTADTATYFCGRLGAYSAFPYYFDYWGQGTTLTVSS
VL: DIQMTQSPSSLSASLGGKVTITCKASQDIHKHIAWYQHKPGKGPRLLIHYTSTLQPGIPSRFSGSGSGRDYSFSISNLEPEDLATYYCLQYDNLWTFGGGTKLEIK

Molecular target: T1, recombinant cynomolgus MerTK …
Assay: SPR Carterra LSA
Method: Binding kinetics of anti-MerTK IgG1 antibodies of the present disclosure to human, cyno, and murine MerTK were evaluated using a Carterra LSA instrument (Carterra, Salt Lake City, UT). […] A HC200M sensor chip (Carterra) was activated using the single channel flow cell with a 7-minute injection of a 1:1:1 mixture of 100 mM MES pH 5.5, 100 mM sulfo-NHS, 400 mM EDC (all reconstituted in MES pH 5.5; 100 μl of each mixed in vial immediately before running assay). After switching to the multi-channel array flow cell, the antibodies were injected over the activated chip in three 96-spot arrays for 10 minutes each. The remaining unconjugated active groups on the chip were then blocked by injecting 1M Ethanolamine pH 8.5 (Carterra) for 7 minutes using the single channel flow cell. The resulting sensor chip contained three spots for each antibody, at three different densities. Two independent experiments were performed as follows, resulting in an N of between one and six determinations for each antibody. Spots that yielded less than 25 RU of analyte binding were excluded from further analysis.
After priming with running buffer (HBS-TE, Carterra) with 0.5 mg/ml BSA (Sigma), the immobilized anti-MerTK antibodies were tested for their ability to bind to several forms of recombinant MerTK extracellular domain, including human, cynomolgus, and mouse orthologs as described above. Estimates of affinity were generated by injecting each analyte over the entire antibody array using the single channel flow cell. MerTK analytes were diluted with running buffer, in a series of six, three-fold serial dilutions starting from 1 μM for human and cynomolgus MerTK, and 600 nM for mouse MerTK. Analytes were injected for 5 minutes, and dissociation was followed for 10 minutes. After each analyte injection, antibodies were regenerated with either Protein A/G Elution Buffer (Thermo) with 1M NaCl (Teknova), or with 10 mM Glycine pH 2.5. Three buffer blanks were run between each series (one species per series). Data were processed and analyzed using NextGenKIT high-throughput kinetics analysis software (Carterra).

**Q.** For B1, which “Ratio of KD for Cynomolgus vs Human MerTK” value (shortened to “Ratio of KD for Cynomolgus”) is on record?
**A.** 2.5 ratio

**Q.** B2 was tested. Which “Ratio of KD for Cynomolgus” value did it give?
**A.** 2.9 ratio

**Q.** Which “Ratio of KD for Cynomolgus” value does the source give for B3 here?
**A.** 1.1 ratio

**Q.** Which “Ratio of KD for Cynomolgus” value does the source give for B4 here?
**A.** 2.7 ratio

**Q.** With B5 as the binder, how does the “Ratio of KD for Cynomolgus” value read?
**A.** 4.8 ratio

**Q.** How did the “Ratio of KD for Cynomolgus” value turn out when B6 was run?
**A.** 2.8 ratio

**Q.** For B7, which “Ratio of KD for Cynomolgus” value is on record?
**A.** 1.8 ratio

**Q.** How did the “Ratio of KD for Cynomolgus” value turn out when B8 was run?
**A.** 4.3 ratio

**Q.** Which “Ratio of KD for Cynomolgus” value does the source give for B9 here?
**A.** 1.8 ratio

**Q.** How did the “Ratio of KD for Cynomolgus” value turn out when B10 was run?
**A.** 1.5 ratio

**Q.** With B11 as the binder, how does the “Ratio of KD for Cynomolgus” value read?
**A.** 1.3 ratio

Molecular target: T1, recombinant cynomolgus MerTK …
Assay: SPR Carterra LSA, Ab immobilised
Outline: (§1)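 Surface plasmon resonance on a Carterra LSA measured affinity of immobilized antibodies for human, cynomolgus or mouse MerTK ectodomain diluted in HBS-TE with 0.5 mg/ml BSA. Analytes flowed over the full array, surfaces were regenerated with Protein A/G Elution Buffer plus 1M NaCl or 10 mM Glycine pH 2.5, and spots binding under 25 RU were discarded before kinetic fitting.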

**Q.** For B1, which Kd is on record?
**A.** 190 nM

**Q.** How did the Kd turn out when B2 was run?
**A.** 52 nM

**Q.** How did the Kd turn out when B3 was run?
**A.** 1.4 nM

**Q.** B4 was tested. Which Kd did it give?
**A.** 410 nM

**Q.** For B5, which Kd is on record?
**A.** 160 nM

**Q.** B6 was tested. Which Kd did it give?
**A.** 680 nM

**Q.** How did the Kd turn out when B7 was run?
**A.** 48 nM

**Q.** For B8, which Kd is on record?
**A.** 1600 nM

**Q.** How did the Kd turn out when B9 was run?
**A.** 34 nM

**Q.** With B10 as the binder, how does the Kd read?
**A.** 80 nM

**Q.** B11 was tested. Which Kd did it give?
**A.** 38 nM

Molecular target: T2, recombinant murine MerTK extracellular …
Assay: SPR Carterra LSA, Ab immobilised
Outline: as §1

**Q.** Does B9 bind?
**A.** no binding (tested: analyte up to 600 nM)

**Q.** Does B11 bind?
**A.** no binding (tested: analyte up to 600 nM)

Molecular target: T3, MerTK N-terminal ECD Half-and-half …
Assay: SPR, construct supernatant over immobilised Ab
Method: Binding of anti-MerTK antibodies of the present disclosure to these domain-swapped chimera or deletion mutants was tested by Surface Plasmon Resonance (SPR) using Carterra LSA. Purified anti-MerTK antibodies were immobilized in duplicate on a HC30M chip (Carterra) by amine coupling, following the manufacturer's instructions (described previously).
Supernatants containing the constructs were diluted 1:1 with running buffer containing 0.5 mg/mL BSA (HBS-TE, Carterra; BSA, Sigma) and injected over the immobilized antibodies. The surface was regenerated with 10 mM Glycine pH2.0 after each construct injection. Sensorgrams were analyzed using Carterra Epitope software to identify patterns of construct binding. Loss of binding to MerTK constructs with domains deleted or swapped in from Axl and/or gain of binding to Axl constructs with MerTK domains swapped in were evaluated. Data from these studies were used to construct a domain binding map for anti-MerTK antibodies and their binding to various domains of human MerTK.

**Q.** Does B2 bind?
**A.** no binding
